Test results as given in paper PMC4560963 (Molecular cell, 2015).

Target: the molecule itself
Assay: native gel or EMSA

B1: recombinant His6-TAF11 (natural protein)
chain: not shown
stoichiometry N: 4
